{
  "source": "patent US20250382354A1",
  "about": "(INSTITUTE FOR RESEARCH IN BIOMEDICINE IRB, published 2025)",
  "binders": {"B1": {"name": "sd1.040 Fab (Fab, V domains shown)", "VH": "QVQLVQSGAEVKKPGASVKVSCKASGYTFTSFYIHWVRQAPGQGLEWMGIIDPSGGSTSYPQKFQGRVTMTRDTSTSTVYMDLSSLRSEDTAVYYCTRDGSAGDNSWFDPWGQGTLVTVSS", "VL": "not shown"}, "B2": {"name": "CV3-25 (antibody, V domains shown)", "VH": "QVQLVESGAEVKKPGESLKISCKGSGYTFTRYWIGWVRQMPGKGLEWMGIIYPGDSDTRYSPSFQGHVTISADKSISTAYLQWNSLKASDTAMYYCARLPQYCSNGVCQRWFDPWGQGTLVTVSS", "VL": "EIVLTQSPSSVSASVGDRVTITCRASQGISSWLAWYQQKPGKAPKLLIYAASSLQSGVPSRFSGSGSGTDFTLTISSLQPEDFATYYCQQGNSFPYTFGQGTNLEIK"}, "B3": {"name": "hr2.014 (antibody, V domains shown)", "VH": "QVQLVQSGAEVKKPGASVKVSCKASGYTFTTYAVHWLRQVPGQRPEWIGWINAANGNTKYSEKFQGRVTITRDTSASTAYMDLRSLRSEDTAVYYCARLLVVRDDPYYYGMDVWGQGTTVTVSS", "VL": "not shown"}, "B4": {"name": "hr2.094 (antibody, V domains shown)", "VH": "EVQLVESGGGLVQPGGSLRLSCAASGFTFSTFWMTWVRQAPGKGLEWVANIKSDGSEKYYVDSVKGRFTISRDNAKNSLYLQMNSLRAEDTAVYYCATWFGLHWGQGTLVTVSS", "VL": "DIVMTQSPDSLAVSLGERASINCKSSQTVLYSSNNKNYLAWYQQKPGQPPKLLIHWASTRDSGVPDRFSGSGSGTDFTLTISSLQAEDVAVYYCQQYHRIPWTFGRGTKVEIK"}},
  "key": {"[1]": {"molecular_target": "SARS-CoV-2 SD1-RBD Ancestral (SARS-CoV-2 (ancestral), UniProt P0DTC2 319-591)", "experiment": "SPR, antigen immobilized, Fab injected"}, "CRCoV-240/05 HR2 peptide": {"molecular_target": "T1, CRCoV-240/05 HR2 peptide (CRCoV-240/05)", "T1 construct": "domain: HR2 peptide", "experiment": "peptide ELISA"}, "Eidolon HR2 peptide": {"molecular_target": "Eidolon HR2 peptide (Eidolon)", "experiment": "peptide ELISA"}, "HKU24 HR2 peptide [2]": {"molecular_target": "HKU24 HR2 peptide (HKU24)", "experiment": "peptide ELISA"}, "[3]": {"molecular_target": "C-terminally truncated SARS-CoV-2 S protein (pSARS-CoV2-Strunc), ancestral (SARS-CoV-2, UniProt P0DTC2 14-1273)", "experiment": "cell-based or functional assay"}, "Erinaceus HR2 peptide": {"molecular_target": "Erinaceus HR2 peptide (Erinaceus)", "experiment": "peptide ELISA"}, "[4]": {"molecular_target": "C-terminally truncated SARS-CoV-2 S protein (pSARS-CoV2-Strunc), ancestral (SARS-CoV-2, UniProt P0DTC2 14-1273)", "experiment": "cell-based or functional assay", "remark": "listed apart in the source"}, "Rosettus HR2 peptide": {"molecular_target": "Rosettus HR2 peptide (Rosettus)", "experiment": "peptide ELISA"}, "HKU24 HR2 peptide [5]": {"molecular_target": "HKU24 HR2 peptide (HKU24)", "experiment": "peptide ELISA", "remark": "listed apart in the source"}},
  "data": [
    {"binder": "B1", "values": [
      {"measurement": "Kd", "setting": "[1]", "value": 4.2, "unit": "nM"}
    ]},
    {"binder": "B2", "values": [
      {"measurement": "EC50", "setting": "CRCoV-240/05 HR2 peptide", "value": 1.92, "unit": "µg/mL"},
      {"measurement": "EC50", "setting": "Eidolon HR2 peptide", "value": 0.0351, "unit": "µg/mL"},
      {"measurement": "EC50", "setting": "HKU24 HR2 peptide [2]", "value": 0.0521, "unit": "µg/mL"},
      {"measurement": "Ancestral Pseudovirus IC50", "setting": "[3]", "value": 0.223, "unit": "µg/mL"},
      {"measurement": "Ancestral Pseudovirus IC50 (on cells with [not given])", "setting": "[3]", "value": 0.375, "unit": "µg/mL"}
    ]},
    {"binder": "B3", "values": [
      {"measurement": "EC50", "setting": "Erinaceus HR2 peptide", "value": 0.117, "unit": "µg/mL"},
      {"measurement": "Ancestral Pseudovirus IC50", "setting": "[4]", "value": 0.355, "unit": "µg/mL"}
    ]},
    {"binder": "B4", "values": [
      {"measurement": "EC50", "setting": "Rosettus HR2 peptide", "value": 0.656, "unit": "µg/mL"},
      {"measurement": "EC50", "setting": "HKU24 HR2 peptide [5]", "value": 0.012, "unit": "µg/mL"},
      {"measurement": "Ancestral Pseudovirus IC50", "setting": "[4]", "value": 2.95, "unit": "µg/mL"}
    ]}
  ]
}
